From patent publication US20120316071A1 (published 2012) come the findings set out here.

For test [1], the target named is T1, Recombinant Human DLL4 (R&D Systems Cat#1506-D4/CF) (human, UniProt Q9NR61 27-524).
T1 construct: Bought recombinant protein; also called delta-like protein 4; Delta-like 4
Briefly: MSD Multispot ECL, antigen spotted on plate, Fab in solution; blank spot of the row 337.

Test [2] concerns the target T2, rHuman Erythropoietin R/Fc Chimera, CF (R&D Systems Cat#963-ER) (human, UniProt P19235 25-250).
T2 construct: Bought recombinant Fc chimera; also called EPO R; EPO R/Fc; Fc part of the bought chimera not given
T2 sequence (looked up): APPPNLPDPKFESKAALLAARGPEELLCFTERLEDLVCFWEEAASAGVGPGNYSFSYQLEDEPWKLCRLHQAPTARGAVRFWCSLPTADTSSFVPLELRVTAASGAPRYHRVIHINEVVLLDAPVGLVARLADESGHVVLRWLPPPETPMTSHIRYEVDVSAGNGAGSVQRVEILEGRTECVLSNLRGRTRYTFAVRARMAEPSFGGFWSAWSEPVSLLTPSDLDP
Described as above.

Test [3] deals with T3, rHuman Notch-1/Fc Chimera, CF (R&D Systems Cat#3647-TK) (human, UniProt P46531 19-526).
T3 construct: Bought recombinant Fc chimera; Fc part of the bought chimera not given
Described as above.

In test [4] the target is T4, rHuman EGF R/Fc Chimera, CF (R&D Systems Cat#344-ER) (human, UniProt P00533 25-645).
T4 construct: Bought recombinant Fc chimera; also called epidermal growth factor receptor; Fc part of the bought chimera not given
Described as above.

Test [5] has as its target T5, rHuman HGF R/c-MET/Fc Chimera, CF (R&D Systems Cat#358-MT/CF) (human, UniProt P08581 25-932).
T5 construct: Bought recombinant Fc chimera; also called HGF R/Fc; hepatocyte growth factor receptor; Fc part of the bought chimera not given
The description is as above.

Test [6] has as its target T6, rHuman CD44/Fc Chimera, CF (R&D Systems Cat#3660-CD) (human, UniProt P16070 21-220).
T6 construct: Bought recombinant Fc chimera; Fc part of the bought chimera not given
Described as above.

Test [7] deals with T7, rHuman P-Cadherin/Fc Chimera, CF (R&D Systems Cat#861-PC) (human, UniProt P22223 108-654).
T7 construct: Bought recombinant Fc chimera; Fc part of the bought chimera not given
The test is described as above.

Test [8] addresses T1, Recombinant Human DLL4 (R&D Systems …). Briefly: MSD Multispot ECL, antigen spotted on plate, Fab in solution; blank spot of the row 351.
The target in test [9] is T2, rHuman Erythropoietin R/Fc Chimera, CF …. The test is described as above.
In test [10] the target is T3, rHuman Notch-1/Fc Chimera, CF (R&D …). The description is as above.
Test [11] concerns the target T4, rHuman EGF R/Fc Chimera, CF (R&D …). The description is as above.
In test [12] the target is T5, rHuman HGF R/c-MET/Fc Chimera, CF (R&D …). The description is as above.
The target of test [13] is T6, rHuman CD44/Fc Chimera, CF (R&D Systems …). The description is as above.
For test [14], the target named is T7, rHuman P-Cadherin/Fc Chimera, CF (R&D …). The description is as above.
Test [15] concerns the target T1, Recombinant Human DLL4 (R&D Systems …). Briefly: MSD Multispot ECL, antigen spotted on plate, Fab in solution; blank spot of the row 297.
The target of test [16] is T2, rHuman Erythropoietin R/Fc Chimera, CF …. The description is as above.
Test [17] concerns the target T3, rHuman Notch-1/Fc Chimera, CF (R&D …). Described as above.
For test [18], the target named is T4, rHuman EGF R/Fc Chimera, CF (R&D …). Described as above.
For test [19], the target named is T5, rHuman HGF R/c-MET/Fc Chimera, CF (R&D …). Described as above.
Test [20] deals with T7, rHuman P-Cadherin/Fc Chimera, CF (R&D …). The description is as above.
In test [21] the target is T1, Recombinant Human DLL4 (R&D Systems …). Briefly: MSD Multispot ECL, antigen spotted on plate, Fab in solution; blank spot of the row 316.
Test [22] has as its target T2, rHuman Erythropoietin R/Fc Chimera, CF …. The description is as above.
The target in test [23] is T3, rHuman Notch-1/Fc Chimera, CF (R&D …). The test is described as above.
Test [24] deals with T4, rHuman EGF R/Fc Chimera, CF (R&D …). The test is described as above.
Test [25] addresses T5, rHuman HGF R/c-MET/Fc Chimera, CF (R&D …). Described as above.
Test [26] has as its target T6, rHuman CD44/Fc Chimera, CF (R&D Systems …). The description is as above.
In test [27] the target is T7, rHuman P-Cadherin/Fc Chimera, CF (R&D …). The description is as above.
In test [28] the target is T2, rHuman Erythropoietin R/Fc Chimera, CF …. Briefly: MSD Multispot ECL, antigen spotted on plate, Fab in solution; blank spot of the row 300.
The target of test [29] is T3, rHuman Notch-1/Fc Chimera, CF (R&D …). The description is as above.
For test [30], the target named is T4, rHuman EGF R/Fc Chimera, CF (R&D …). The description is as above.
Test [31] has as its target T5, rHuman HGF R/c-MET/Fc Chimera, CF (R&D …). The test is described as above.
Test [32] deals with T7, rHuman P-Cadherin/Fc Chimera, CF (R&D …). The test is described as above.

T5 sequence (P08581 25-932, change not shown): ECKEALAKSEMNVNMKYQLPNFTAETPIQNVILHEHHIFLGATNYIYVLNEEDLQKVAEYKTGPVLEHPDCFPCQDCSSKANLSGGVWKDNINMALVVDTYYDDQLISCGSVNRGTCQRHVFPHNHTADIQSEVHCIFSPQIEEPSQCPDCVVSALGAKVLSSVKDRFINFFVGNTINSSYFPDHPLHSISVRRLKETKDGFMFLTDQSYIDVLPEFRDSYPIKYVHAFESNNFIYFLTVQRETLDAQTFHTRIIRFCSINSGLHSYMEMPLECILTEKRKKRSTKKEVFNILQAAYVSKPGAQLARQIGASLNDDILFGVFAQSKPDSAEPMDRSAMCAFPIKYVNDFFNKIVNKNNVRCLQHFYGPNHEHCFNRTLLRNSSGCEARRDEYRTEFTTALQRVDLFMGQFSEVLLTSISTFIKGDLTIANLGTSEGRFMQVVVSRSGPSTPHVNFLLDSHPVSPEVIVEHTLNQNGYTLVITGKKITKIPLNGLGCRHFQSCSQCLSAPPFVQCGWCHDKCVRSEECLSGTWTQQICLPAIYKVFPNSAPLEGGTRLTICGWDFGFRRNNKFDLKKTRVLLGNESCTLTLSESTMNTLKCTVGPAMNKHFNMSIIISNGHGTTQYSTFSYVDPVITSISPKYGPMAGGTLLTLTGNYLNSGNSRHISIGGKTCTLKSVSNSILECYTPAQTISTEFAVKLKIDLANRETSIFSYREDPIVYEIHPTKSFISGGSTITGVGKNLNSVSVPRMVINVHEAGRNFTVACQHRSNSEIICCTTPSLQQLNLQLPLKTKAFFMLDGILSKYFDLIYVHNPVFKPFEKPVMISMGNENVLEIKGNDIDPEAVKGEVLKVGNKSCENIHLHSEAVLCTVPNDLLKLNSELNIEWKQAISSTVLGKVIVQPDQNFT

B1: Fab VH5-51_IGHD5-18*01>3_IGHJ4*01 G100K/G104T F29A & V3-4_IGLJ1*01 (Fab, V domains shown)
VH: EVQLVQSGAEVKKPGESLKISCKGSGYSATSYWIGWVRQMPGKGLEWMGIIYPGDSDTRYSPSFQGQVTISADKSISTAYLQWSSLKASDTAMYYCARRKYSYTYDYFDYWGQGTLVTVSS
VL: QTVVTQEPSFSVSPGGTVTLTCGLSSGSVSTSYYPSWYQQTPGQAPRTLIYSTNTRSSGVPDRFSGSILGNKAALTITGAQADDESDYYCVLYMGSGISYVFGTGTKVTVL
notes: Fab made in E. coli; VH cloned into Plasmid A (CH1, His6 and Flag tags), lambda VL into Plasmid E (lambda CL); also called KT F29A
Regarding B1, the ECL signal turned out to be 22900 in test [1]; 586 in [2]; 601 in test [3]; 887 in test [4]; 985 in test [5]; 621 in [6]. The same molecule gave an ECL signal in [7] of 502.

B2: Fab VH5-51_IGHD5-18*01>3_IGHJ4*01 G100K/G104T T30A & V3-4_IGLJ1*01 (Fab, V domains shown)
VH: EVQLVQSGAEVKKPGESLKISCKGSGYSFASYWIGWVRQMPGKGLEWMGIIYPGDSDTRYSPSFQGQVTISADKSISTAYLQWSSLKASDTAMYYCARRKYSYTYDYFDYWGQGTLVTVSS
VL: QTVVTQEPSFSVSPGGTVTLTCGLSSGSVSTSYYPSWYQQTPGQAPRTLIYSTNTRSSGVPDRFSGSILGNKAALTITGAQADDESDYYCVLYMGSGISYVFGTGTKVTVL
notes: Fab made in E. coli; VH cloned into Plasmid A (CH1, His6 and Flag tags), lambda VL into Plasmid E (lambda CL); also called KT T30A
Regarding B2, the ECL signal was determined as 24300 in test [8]; 553 in test [9]; 539 in test [10]; 853 in test [11]; 868 in [12]; 698 in test [13]. In test [14], this molecule gave an ECL signal of 438.

B3: Fab VH5-51_IGHD5-18*01>3_IGHJ4*01 G100K/G104T G35A & V3-4_IGLJ1*01 (Fab, V domains shown)
VH: EVQLVQSGAEVKKPGESLKISCKGSGYSFTSYWIAWVRQMPGKGLEWMGIIYPGDSDTRYSPSFQGQVTISADKSISTAYLQWSSLKASDTAMYYCARRKYSYTYDYFDYWGQGTLVTVSS
VL: QTVVTQEPSFSVSPGGTVTLTCGLSSGSVSTSYYPSWYQQTPGQAPRTLIYSTNTRSSGVPDRFSGSILGNKAALTITGAQADDESDYYCVLYMGSGISYVFGTGTKVTVL
notes: Fab made in E. coli; VH cloned into Plasmid A (CH1, His6 and Flag tags), lambda VL into Plasmid E (lambda CL); also called KT G35A
For B3, the ECL signal in test [15] amounted to 53600; in [16] it was 506; in test [17], 400; in test [18], 760; in test [19] it was 939; in [20], 305.

B4: Fab VH5-51_IGHD5-18*01>3_IGHJ4*01 G100K/G104T S28A & V3-4_IGLJ1*01 (Fab, V domains shown)
VH: EVQLVQSGAEVKKPGESLKISCKGSGYAFTSYWIGWVRQMPGKGLEWMGIIYPGDSDTRYSPSFQGQVTISADKSISTAYLQWSSLKASDTAMYYCARRKYSYTYDYFDYWGQGTLVTVSS
VL: QTVVTQEPSFSVSPGGTVTLTCGLSSGSVSTSYYPSWYQQTPGQAPRTLIYSTNTRSSGVPDRFSGSILGNKAALTITGAQADDESDYYCVLYMGSGISYVFGTGTKVTVL
notes: Fab made in E. coli; VH cloned into Plasmid A (CH1, His6 and Flag tags), lambda VL into Plasmid E (lambda CL); also called KT S28A
Regarding B4, the ECL signal in test [21] stood at 35400; in test [22], 586; in [23], 432; in [24], 839; in [25], 1040; in test [26], 497. Further, in [27], the ECL signal is 317.

B5: Fab VH5-51_IGHD5-18*01>3_IGHJ4*01 G100K/G104T I34A & V3-4_IGLJ1*01 (Fab, V domains shown)
VH: EVQLVQSGAEVKKPGESLKISCKGSGYSFTSYWAGWVRQMPGKGLEWMGIIYPGDSDTRYSPSFQGQVTISADKSISTAYLQWSSLKASDTAMYYCARRKYSYTYDYFDYWGQGTLVTVSS
VL: QTVVTQEPSFSVSPGGTVTLTCGLSSGSVSTSYYPSWYQQTPGQAPRTLIYSTNTRSSGVPDRFSGSILGNKAALTITGAQADDESDYYCVLYMGSGISYVFGTGTKVTVL
notes: Fab made in E. coli; VH cloned into Plasmid A (CH1, His6 and Flag tags), lambda VL into Plasmid E (lambda CL); also called KT I34A
Take B5: the ECL signal was determined as 505 in test [28]; 564 in test [29]; 883 in [30]; 1080 in test [31]; 349 in [32].
